# Measurements published in patent US6512097.
# Values joined by “and” are separate entries in the source; they are usually repeats but may differ in a detail not shown here. Equal values may be shown once.
# B1: C6MH3-B2 (scFv)
# scFv: QVQLLQSGAELKKPGESLKISCKGSGYSFTSYWIAWVRQMPGKGLEYMGLIYPGDSDTKYSPSFQGQVTISVDKSVSTAYLQWSSLKPSDSAVYFCARHDVGYCTDPRCAKWPEYFQHWGQGTLVTVSSGGGGSGGGGSGGGGSQSVLTQPPSVSAAPGQKVTISCSGSSSNIGNNYVSWYQQLPGTAPKLLIYGHTNRPAGVPDRFSGSKSGTSASLAISGFRSEDEADYYCASWDYTLSGWVFGGGTKLTVLG
# notes: C6ML3-9 sFv, VH CDR3 library B mutant
# B2: C6MH3-B5 (scFv)
# scFv: QVQLLQSGAELKKPGESLKISCKGSGYSFTSYWIAWVRQMPGKGLEYMGLIYPGDSDTKYSPSFQGQVTISVDKSVSTAYLQWSSLKPSDSAVYFCARHDVGYCTDATCAKWPEYFQHWGQGTLVTVSSGGGGSGGGGSGGGGSQSVLTQPPSVSAAPGQKVTISCSGSSSNIGNNYVSWYQQLPGTAPKLLIYGHTNRPAGVPDRFSGSKSGTSASLAISGFRSEDEADYYCASWDYTLSGWVFGGGTKLTVLG
# notes: as for B1
# B3: C6MH3-B9 (scFv)
# scFv: QVQLLQSGAELKKPGESLKISCKGSGYSFTSYWIAWVRQMPGKGLEYMGLIYPGDSDTKYSPSFQGQVTISVDKSVSTAYLQWSSLKPSDSAVYFCARHDVGYCKTAACAKWPEYFQHWGQGTLVTVSSGGGGSGGGGSGGGGSQSVLTQPPSVSAAPGQKVTISCSGSSSNIGNNYVSWYQQLPGTAPKLLIYGHTNRPAGVPDRFSGSKSGTSASLAISGFRSEDEADYYCASWDYTLSGWVFGGGTKLTVLG
# notes: as for B1
# B4: C6MH3-B11 (scFv)
# scFv: QVQLLQSGAELKKPGESLKISCKGSGYSFTSYWIAWVRQMPGKGLEYMGLIYPGDSDTKYSPSFQGQVTISVDKSVSTAYLQWSSLKPSDSAVYFCARHDVGYCSDRSCAKWPEYFQHWGQGTLVTVSSGGGGSGGGGSGGGGSQSVLTQPPSVSAAPGQKVTISCSGSSSNIGNNYVSWYQQLPGTAPKLLIYGHTNRPAGVPDRFSGSKSGTSASLAISGFRSEDEADYYCASWDYTLSGWVFGGGTKLTVLG
# notes: as for B1
# B5: C6MH3-B15 (scFv)
# scFv: QVQLLQSGAELKKPGESLKISCKGSGYSFTSYWIAWVRQMPGKGLEYMGLIYPGDSDTKYSPSFQGQVTISVDKSVSTAYLQWSSLKPSDSAVYFCARHDVGYCESSRCAKWPEYFQHWGQGTLVTVSSGGGGSGGGGSGGGGSQSVLTQPPSVSAAPGQKVTISCSGSSSNIGNNYVSWYQQLPGTAPKLLIYGHTNRPAGVPDRFSGSKSGTSASLAISGFRSEDEADYYCASWDYTLSGWVFGGGTKLTVLG
# notes: as for B1
# B6: C6MH3-B16 (scFv)
# scFv: QVQLLQSGAELKKPGESLKISCKGSGYSFTSYWIAWVRQMPGKGLEYMGLIYPGDSDTKYSPSFQGQVTISVDKSVSTAYLQWSSLKPSDSAVYFCARHDVGYCADVRCAKWPEYFQHWGQGTLVTVSSGGGGSGGGGSGGGGSQSVLTQPPSVSAAPGQKVTISCSGSSSNIGNNYVSWYQQLPGTAPKLLIYGHTNRPAGVPDRFSGSKSGTSASLAISGFRSEDEADYYCASWDYTLSGWVFGGGTKLTVLG
# notes: as for B1
# B7: C6MH3-B20 (scFv)
# scFv: QVQLLQSGAELKKPGESLKISCKGSGYSFTSYWIAWVRQMPGKGLEYMGLIYPGDSDTKYSPSFQGQVTISVDKSVSTAYLQWSSLKPSDSAVYFCARHDVGYCSPARCAKWPEYFQHWGQGTLVTVSSGGGGSGGGGSGGGGSQSVLTQPPSVSAAPGQKVTISCSGSSSNIGNNYVSWYQQLPGTAPKLLIYGHTNRPAGVPDRFSGSKSGTSASLAISGFRSEDEADYYCASWDYTLSGWVFGGGTKLTVLG
# notes: as for B1
# B8: C6MH3-B21 (scFv)
# scFv: QVQLLQSGAELKKPGESLKISCKGSGYSFTSYWIAWVRQMPGKGLEYMGLIYPGDSDTKYSPSFQGQVTISVDKSVSTAYLQWSSLKPSDSAVYFCARHDVGYCTTPLCAKWPEYFQHWGQGTLVTVSSGGGGSGGGGSGGGGSQSVLTQPPSVSAAPGQKVTISCSGSSSNIGNNYVSWYQQLPGTAPKLLIYGHTNRPAGVPDRFSGSKSGTSASLAISGFRSEDEADYYCASWDYTLSGWVFGGGTKLTVLG
# notes: as for B1
# B9: C6MH3-B25 (scFv)
# scFv: QVQLLQSGAELKKPGESLKISCKGSGYSFTSYWIAWVRQMPGKGLEYMGLIYPGDSDTKYSPSFQGQVTISVDKSVSTAYLQWSSLKPSDSAVYFCARHDVGYCLTTRCAKWPEYFQHWGQGTLVTVSSGGGGSGGGGSGGGGSQSVLTQPPSVSAAPGQKVTISCSGSSSNIGNNYVSWYQQLPGTAPKLLIYGHTNRPAGVPDRFSGSKSGTSASLAISGFRSEDEADYYCASWDYTLSGWVFGGGTKLTVLG
# notes: as for B1
# B10: C6MH3-B27 (scFv)
# scFv: QVQLLQSGAELKKPGESLKISCKGSGYSFTSYWIAWVRQMPGKGLEYMGLIYPGDSDTKYSPSFQGQVTISVDKSVSTAYLQWSSLKPSDSAVYFCARHDVGYCKNSRCAKWPEYFQHWGQGTLVTVSSGGGGSGGGGSGGGGSQSVLTQPPSVSAAPGQKVTISCSGSSSNIGNNYVSWYQQLPGTAPKLLIYGHTNRPAGVPDRFSGSKSGTSASLAISGFRSEDEADYYCASWDYTLSGWVFGGGTKLTVLG
# notes: as for B1
# B11: C6MH3-B39 (scFv)
# scFv: QVQLLQSGAELKKPGESLKISCKGSGYSFTSYWIAWVRQMPGKGLEYMGLIYPGDSDTKYSPSFQGQVTISVDKSVSTAYLQWSSLKPSDSAVYFCARHDVGYCTDPTCAKWPEYFQHWGQGTLVTVSSGGGGSGGGGSGGGGSQSVLTQPPSVSAAPGQKVTISCSGSSSNIGNNYVSWYQQLPGTAPKLLIYGHTNRPAGVPDRFSGSKSGTSASLAISGFRSEDEADYYCASWDYTLSGWVFGGGTKLTVLG
# notes: as for B1
# B12: C6MH3-B41 (scFv)
# scFv: QVQLLQSGAELKKPGESLKISCKGSGYSFTSYWIAWVRQMPGKGLEYMGLIYPGDSDTKYSPSFQGQVTISVDKSVSTAYLQWSSLKPSDSAVYFCARHDVGYCTDRPCAKWPEYFQHWGQGTLVTVSSGGGGSGGGGSGGGGSQSVLTQPPSVSAAPGQKVTISCSGSSSNIGNNYVSWYQQLPGTAPKLLIYGHTNRPAGVPDRFSGSKSGTSASLAISGFRSEDEADYYCASWDYTLSGWVFGGGTKLTVLG
# notes: as for B1
# B13: C6MH3-B48 (scFv)
# scFv: QVQLLQSGAELKKPGESLKISCKGSGYSFTSYWIAWVRQMPGKGLEYMGLIYPGDSDTKYSPSFQGQVTISVDKSVSTAYLQWSSLKPSDSAVYFCARHDVGYCTDPSCAKWPEYFQHWGQGTLVTVSSGGGGSGGGGSGGGGSQSVLTQPPSVSAAPGQKVTISCSGSSSNIGNNYVSWYQQLPGTAPKLLIYGHTNRPAGVPDRFSGSKSGTSASLAISGFRSEDEADYYCASWDYTLSGWVFGGGTKLTVLG
# notes: as for B1
# B14: C6MH3-C3 (scFv)
# scFv: QVQLLQSGAELKKPEESLKISCKGSGYSFTSYWIAWVRQMPGKGLEYMGLIYPGDSDTKYSPSFQGQVTISVDKSVSTAYLQWSSLKPSDSAVYFCARHDVGYCSSSNCAKWPEYFQHWGQGTLVTVSSGGGGSGGGGSGGGGSQSVLTQPPSVSAAPGQKVTISCSGSSSNIGNNYVSWYQQLPGTAPKLLIYGHTDRPAGVPDRFSGSKSGTSASLAISGFRSEDEADYYCASWDYTLSGWVFGGGTKLTVLG
# B15: C6MH3-D1 (scFv)
# scFv: QVQLLQSGAELKKPGESLKISCKGSGYSFTSYWIAWVRQMPGKGLEYMGLIYPGDSDTKYSPSFQGQVTISVDKSVSTAYLQWSSLKPSDSAVYFCARHDVGYCSSSNCAKWPEWLHVWGQGTLVTVSSGGGGSGGGGSGGGGSQSVLTQPPSVSAAPGQKVTISCSGSSSNIGNNYVSWYQQLPGTAPKLLIYGHTNRPAGVPDRFSGSKSGTSASLAISGFRSEDEADYYCASWDYTLSGWVFGGGTKLTVLG
# notes: C6ML3-9 sFv, VH CDR3 library D mutant
# B16: C6MH3-D3 (scFv)
# scFv: QVQLLQSGAELKKPGESLKISCKGSGYSFTSYWIAWVRQMPGKGLEYMGLIYPGDSDTKYSPSFQGQVTISVDKSVSTAYLQWSSLKPSDSAVYFCARHDVGYCSSSNCAKWPEWLDNWGQGTLVTVSSGGGGSGGGGSGGGGSQSVLTQPPSVSAAPGQKVTISCSGSSSNIGNNYVSWYQQLPGTAPKLLIYGHTNRPAGVPDRFSGSKSGTSASLAISGFRSEDEADYYCASWDYTLSGWVFGGGTKLTVLG
# notes: as for B15
# B17: C6.5Y99A (scFv)
# scFv: QVQLLQSGAELKKPGESLKISCKGSGYSFTSYWIAWVRQMPGKGLEYMGLIYPGDSDTKYSPSFQGQVTISVDKSVSTAYLQWSSLKPSDSAVYFCARHDVGACSSSNCAKWPEYFQHWGQGTLVTVSSGGGGSGGGGSGGGGSQSVLTQPPSVSAAPGQKVTISCSGSSSNIGNNYVSWYQQLPGTAPKLLIYGHTNRPAGVPDRFSGSKSGTSASLAISGFRSEDEADYYCAAWDDSLSGWVFGGGTKLTVLG
# notes: C6.5 VH CDR3 scan mutant; Kabat numbering
# Biological target: T1, c-erbB-2 ECD with a Ser-Gly-His6 C-terminal fusion (UniProt P04626 23-652)
# T1 construct: extracellular domain; Expressed from CHO cells, IMAC purified; coupled to a CM5 chip, coated on plates, or biotinylated with NHS-LC-biotin; also called c-erbB-2 extracellular domain; biotinylated c-erbB-2 ECD
# Test: SPR BIAcore
# Description: All assays were performed in triplicate. Briefly, […] of radioiodinated sFv was added to 5×10^6 SK-OV cells in the presence of increasing concentrations of unlabeled sFv from the same preparation. After a 30 minute incubation at 20° C., the samples were washed with PBS at 4° C. and centrifuged at 500 g. The amount of labeled sFv bound to the cells was determined by counting the pellets in a gamma counter and the K_a, and K_d were calculated using the EBDA program (V 2.0, G. A. McPherson, 1983). The K_d of all the other isolated sFv were determined using surface plasmon resonance in a BIAcore (Pharmacia). In a BIAcore flow cell, approximately 1400 resonance units (RU) of c-erbB-2 ECD (25 μg/ml in 10 mM sodium acetate, pH 4.5) was coupled to a CM5 sensor chip (Johnsson et al. (1991), supra). Association and dissociation-rates were measured under continuous flow of […] using a concentration range from 50 to 800 nM. Rate constant $kon$ was determined from a plot of (1(dR/dt))/t vs concentration (Karlsson et al. (1991), supra). Rate constant $Hoff$ was determined from the dissociation part of the sensorgram at the highest concentration of sFv analyzed.
# Dashes indicate sequence identity. Mutations arising from PCR error and located outside V_H CDR3 are listed under the heading other mutations. F = frequency of isolated scFv. *$koff$ determined from unpurified scFv samples. Underline indicates mutated residue.
Binder,Kd,koff
B1,0.31 nM and 0.58 nM,0.00031 s⁻¹ and 0.00032 s⁻¹
B2,0.34 nM,0.00023 s⁻¹
B3,0.87 nM,0.00033 s⁻¹
B4,0.22 nM,0.00023 s⁻¹
B5,0.77 nM,0.00029 s⁻¹
B6,0.31 nM,0.00028 s⁻¹
B7,0.87 nM,0.00016 s⁻¹
B8,0.73 nM,0.00024 s⁻¹
B9,0.36 nM,0.00019 s⁻¹
B10,0.47 nM,0.0004 s⁻¹
B11,0.32 nM,0.00019 s⁻¹
B12,0.53 nM,0.00027 s⁻¹
B13,0.23 nM,0.00013 s⁻¹
B14,0.65 nM,0.00032 s⁻¹
B15,0.31 nM,0.00011 s⁻¹
B16,0.27 nM,0.00025 s⁻¹

# Biological target: T1, c-erbB-2 ECD with a Ser-Gly-His6 …
# Test: SPR BIAcore
# Remark: another data set of the same source
Binder,Kd,Kd (mutant)/Kd (C6.5),koff,kon
B17,59 nM,3.7,0.053 s⁻¹,900000 M⁻¹ s⁻¹
